Earlier results on 1 substance are cited in paper PMC3097287.

Where two headings read alike, the source gives them in different places.

The target of data set [1] is NPRA ECD (Rattus norvegicus) (UniProt P18910). Description: sedimentation equilibrium.
Data set [2] has the same target. Briefly: sedimentation equilibrium. This is another data set of the same source.
Another data set deals with ANP (Rattus norvegicus) (UniProt P01161).
Chain of UniProt P01161 (P01161 123-150): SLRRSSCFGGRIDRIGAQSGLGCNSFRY

The term Kd denotes the constant that tells how readily two partners part at equilibrium. For the substance NPRA ECD (from UniProt P18910), the Kd in data set [1] is 500 nM; in data set [2] it was 10 nM; with ANP (Rattus norvegicus) it was 1 nM.
